# Literature values as cited in PMC5028754.
# Target: ubiquitin (UniProt P0CG48)
# Experiment: NMR
# Conditions: cited from earlier work
# Sequence of Ddi1 UBL (P40087 1-80): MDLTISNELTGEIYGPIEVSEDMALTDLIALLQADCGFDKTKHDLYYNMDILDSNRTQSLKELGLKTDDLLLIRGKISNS
# Sequence of Ddi1 UBA (P40087 386-428): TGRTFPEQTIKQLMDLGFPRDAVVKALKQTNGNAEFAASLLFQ
row,Substance,Kd [µM]
1,Ddi1 UBA (from UniProt P40087),150
2,Ddi1 UBL (from UniProt P40087),45
